B1: Tryptophan hydroxylase (Rattus norvegicus) (protein)
chain: MQPAMMMFSSKYWARRGLSLDSAVPEEHQILGGLTQNKATASKSEDKRSGKDTSESSKTAVVFSLKNEVGGLVRALRLFQEKHVNMLHIESRRSRRRSSEVEIFVDCECGKTEFNELIQLLKFQTTIVTLNPPDNIWTEEEELEDVPWFPRKISELDRCSHRVLMYGTELDADHPGFKDNVYRQRRKYFVDVAMGYKYGQPIPRVEYTEEETKTWGVVFRELSKLYPTHACREYLKNFPLLTKYCGYREDNVPQLEDVSMFLKERSGFTVRPVAGYLSPRDFLAGLAYRVFHCTQYVRHGSDPLYTPEPDTCHELLGHVPLLADPKFAQFSQEIGLASLGASDEDVQKLATCYFFTIEFGLCKQEGQLRAYGAGLLSSIGELKHALSDKACVKAFDPKTTCLQECLITTFQDAYFVSESFEEAKEKMRDFAKSITRPFSVYFNPYTQSIEILKDTRSIENVVQDLRSDLNTVCDALNKMNQYLGI
B2: Phenylalanine hydroxylase (Rattus norvegicus) (protein)
chain: MAAVVLENGVLSRKLSDFGQETSYIEDNSNQNGAISLIFSLKEEVGALAKVLRLFEENDINLTHIESRPSRLNKDEYEFFTYLDKRTKPVLGSIIKSLRNDIGATVHELSRDKEKNTVPWFPRTIQELDRFANQILSYGAELDADHPGFKDPVYRARRKQFADIAYNYRHGQPIPRVEYTEEEKQTWGTVFRTLKALYKTHACYEHNHIFPLLEKYCGFREDNIPQLEDVSQFLQTCTGFRLRPVAGLLSSRDFLGGLAFRVFHCTQYIRHGSKPMYTPEPDICHELLGHVPLFSDRSFAQFSQEIGLASLGAPDEYIEKLATIYWFTVEFGLCKEGDSIKAYGAGLLSSFGELQYCLSDKPKLLPLELEKTACQEYSVTEFQPLYYVAESFSDAKEKVRTFAATIPRPFSVRYDPYTQRVEVLDNTQQLKILADSINSEVGILCNALQKIKS

Legend:
[1] = substrate: C[C@H](O)[C@H](O)[C@H]1CNc2nc(N)[nH]c(=O)c2N1; test: cells, lysate or membranes named; details: other: Km of substrate with the pterin as cofactor
[2] = substrate: C[C@H](O)[C@H](O)[C@H]1CNc2nc(N)[nH]c(=O)c2N1; test: purified protein, by the assay type; details: other: rat liver enzyme; Km of substrate with the pterin as cofactor

Protein | Km [1] [µM] | Km [2] [µM]
B1 | 15 | 
B2 |  | 123
